Test results as given in US20050239704, “Compositions and methods for affecting virulence determinants in bacteria” (published 2005).

Molecular target: SarR (Staphylococcus aureus, UniProt Q2FEJ8 SEQ:1-115)
Test: footprint; protected region nt 81-108 within the 109-bp fragment
Conditions: tags: untagged, pET11b expressed in E. coli BL21(DE3)pLysS; chain copies: 2 (inferred)

Chain of SarR (Q2FEJ8 whole entry, the tested form may be a part): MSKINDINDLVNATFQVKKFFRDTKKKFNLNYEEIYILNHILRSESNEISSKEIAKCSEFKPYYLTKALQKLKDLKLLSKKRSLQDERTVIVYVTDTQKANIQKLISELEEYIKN

B1: sarA P2 protected region (nt 81-108) (dsDNA)
DNA 1: TAAATTAATGTTATTTTTTAATAATTTA
DNA 2: TAAATTATTAAAAAATAACATTAATTTA
Question: Does B1 bind?
Answer: Result: binds
